This note sets out measurements from the DeepSol protein solubility set.

The data set is described as follows: soluble on expression in E. coli; label from the status in PepcDB or PDB records.
As for “MRYLIATAVLVAVVLVGWPAAGAPPSCAGLGGTVQAGQICHVHASGPKYMLDMTFPVDYPDQQALTDYITQNRDGFVNVAQGSPLRDQPYQMDATSEQHSSGQPPQATRSVVLKFFQDLGGAHPSTWYKAFNYNLATSQPITFDTLFVPGTTPLDSIYPIVQRELARQTGFGAAILPSTGLDPAHYQNFAITDDSLIFYFAQGELLPSFVGACQAQVPRSAIPPLAI”, the “soluble on expression in E. coli” value is reported as “soluble”.
Next, “MRYTVALTGGIGSGKSTVADAFADLGITVIDADIIARQMVEPGQPALNAIAEHFGSELIAADGTLRRRALRERIFSHPEEKAWLNALLHPLIQQETQRQFQQATSPYVLWVVPLLVENRLYQKANRVLVVDVTPETQLIRTMQRDDVTREHVEHILAAQATREARLAVADDVIDNNGAPDAIASDVARLHASYLKLASQFVSQEKP”: “not soluble”; “MSADFEQLVAQFERFQARMTRVEQQFAGVDDMRQRLAELEVAATSADRSVTVVAGPSGAILDIRLTEQAVRKPAHALAGELMSTLRKAVAEAARRQAGIVDGALGEAFGDDLDLTEQVLETQAELFGMSKEELRAVTAEEATTAPQQGPPAPPARPTPPSPGQPQGGPVPGRPEPGQARTGGPQPGRPHSGRQQSGQPQPGRPQSGQPQPGRPQSGQPQPGKSQPGTSQPGQARPGQSGPAQRPQGGEPQQEDFSERNFMKDDWKQSGSKAQPPGPGGKQDDRFLNLYDDEDGR”: “not soluble”.
In the case of “MSAEASGPAAAAAPSLEAPKPSGLEPGPAAYGLKPLTPNSKYVKLNVGGSLHYTTLRTLTGQDTMLKAMFSGRVEVLTDAGGWVLIDRSGRHFGTILNYLRDGSVPLPESTRELGELLGEARYYLVQGLIEDCQLALQQKRETLSPLCLIPMVTSPREEQQLLASTSKPVVKLLHNRSNNKYSYTSTSDDNLLKNIELFDKLALRFHGRLLFLKDVLGDEICCWSFYGQGRKIAEVCCTSIVYATEKKQTKVEFPEARIFEETLNILIYETPRGPDPALLEATGGAAGAGGAGRGEDEENREHRVRRIHVRRHITHDERPHGQQIVFKD” it was “soluble”; in that of “MSAEASGPAAAAAPSLEAPKPSGLEPGPAAYGLKPLTPNSKYVKLNVGGSLHYTTLRTLTGQDTMLKAMFSGRVEVLTDAGGWVLIDRSGRHFGTILNYLRDGSVPLPESTRELGELLGEARYYLVQGLIEDCQLALQQKRETLSPLCLIPMVTSPREEQQLLASTSKPVVKLLHNRSNNKYSYTSTSDDNLLKNIELFDKLALRFHGRLLFLKDVLGDEICCWSFYGQGRKIAEVCCTSIVYATEKKQTKVEFPEARIFEETLNILIYETPRGPDPALLEATGGAAGAGGAGRGEDEENREHRVRRIHVRRHITHDERPHGQQIVFKDLEHHHHHH”, “not soluble”; in that of “MSAGPIVERNQDATIYVGGLDEKVSESILWELMVQAGPVVSVNMPKDRVTANHQGFGFVEFMGEEDADYAIKILNMIKLYGKPIKVNKASAHEKNMDVGANIFVGNLDPEVDEKLLYDTFSAFGVILQVPKIMRDVDSGTSKGFAFINFASFEASDTALEAMNGQFLCNRAITVSYAFKRDSKGERHGTAAERMLAAQNPLFPKDRPHQVFSDVPLGVPANTPLAMPGVHAAIAAHATGRPGYQPPPLMGMAQSGYQGQYPPVPPPPPSVTPMPPPMPPTPGMTPRPPPPPSSGMWPPPPPPPPGRTPGPPGMPGMPPPPPPSRFGPPGMGGMPPPPPPGMRYPGGMPPPPPPRYPSAGPGMYPPPPPSRPPAPPSGHGMIPPPPPPS”, “not soluble”.
As for “MSALLEVTNLHKDFVTRSGFLRKQIQHAVKPVSFTLEAGQTIGFIGQNGSGKSTLARMLAGMVAPTGGEIRVNGELLEHKDYSTRCKLIRMIFQDPNTSLNPRLQIGTILEGPLKRNTSMTPEARMRRVKDTLQRVGLLPEHAYFYPQMLATGQKQRVCLARALILQPSIIIADEALNGLDMAMRSQILNLFLELQEEMGVSFVYVSQHIGVIKHITDKIIVMHEGDVVESGETHEVLADPQHPITQRMIESHFTKAPTFKY”, the “soluble on expression in E. coli” value is on record as “not soluble”.
Take “MSAPSRTVLRELTATKYVANYTDEYQLETARAGCSALPPQPNINHDAIIEGHGEDVELVEDKNYRSLHRIDETPKLVDKKPSKAIIRDEAVKVLRDIQTMPIENLRLKRYDFFSQRWFNTTRESEKALVEHVLLHPNQRPHYFAAQCRMLSAEDISSLILTSLLAEPKETGQNVVRFAIQAKTAMPFQQLFAILEKLEMEIEGFQMTDSFVVATLIRSQSKSTTTRRLRTTNCREYGNLEPGLDSQGRLMASTASITCSIRGKRHVETRIVYNNNSSARDPFRRYRYIELEQTVKCMNRRVQIVEEPVEFHEFEVENDMVSLRNGMVLVDDLISFLETFELDEE”: the “soluble on expression in E. coli” value is recorded as “not soluble”.
Turning to “MSAPVADAPAAEIVYKIISSDGVVSKMSEKAVQQSKTLSNLIENLGYTIENIETRDPIPVTNVNGKTMAKVAELCEKHKADAIPEDNMNVLKTLTIPEWDQKFLKIEDEALFDLILASNFLDIKGLMYYGCKTVSNMAKGKTTAELREIFGINTDEQDAAEETAQKAAAEVA”, the “soluble on expression in E. coli” value was “not soluble”.
In the case of “MSAQTDPGYFFMPNHIILIGASEQPYSLGERVLSNLLSTPFQGKITPVNPRHHTIAGLPAYTSLNKIPGNADLIIAVTLPDSYDTLFKTCRKKQLRHIILIQDWDNLSAAELHTAETAIRKHHGNGLNITACTTAGIQLPSLGLNISTQDGYAAGHTAILTGNAAVSRQIDNILNKLRQGTSRHISLHPGISPITSADWLNRFGHSLHTKTAVLHHNPEEDQRKLFSAIRQFTRHTPLILHITCRTTETDRAVLHCLARHCNFLVSFNADDLEAALRAQLSDLPPLSRLDILSDTPAEWLHAHAPKNLTLHFPNLPHHIRNGHLTGTPTPSICHDIASRQLAHPDTQAVLTILSPSGHEDYKKTARALIRLSEQTAKPLLVSSPFSDGITHFDTPTQAIRTLSYRNTAAALKQAQLDIAPPQPCRLKTPQPQNIKKALAAANPSLLAEALHLPPYRHTTHNAVQFQFDSHPLYGDILTARCNGQTTAVLPPFTTLDSRHLARFAELDGTQTLDQFLHTLTVIPEYRQHILGITLNLNGGQYSSDFLLKTPETHDTPKRKNTGKAAQTLEHAAAKMQSAAAYLKHKNPTAAEFLRHTSEAAAELLGSKTETGAAVPNVLAPYPAAYPKTLSLRNNTTVTITPILPEDAEAKQQFVRSLGPEARYTRFMTHTNELPAATLARLCNPDYHCEAAWTAKDADSNIVAVVRHSRLNRNECEFGITLAEHMRGSGLAQKMMELIIQTAAQQGYRTMSADILKTNTPMIKLAEKSGFTLKESDTEKNLYRAYLNLAADKTTEKTNKNLRTDHKIT” it was “not soluble”; in that of “MSARKLFYLGPQGTFTHQAAVNAAQELARFEPQGFDLMPMDDVPQILDAAQHGDGWGIVAWENNVEGYVVPNLDALIDAKDLVGFARVGVNVEFDAYVAQGADPAEARIATAHPHGLAQCKRFIAEHRLSTQPATSNAAACRDLIPGEIAFGPAICGELYDITRIGTAIQDYQGAATDFLVLSPRAE”, “not soluble”; in that of “MSATAGRVVRAGQHAVRTVAPIKSNNSAEARMSVLAAYKEFQRLTPKFWWDFGLHDMPLGVFRAVIKKQFTKNGHLTDVRVVDRLVGETHQHMKSIRYAFYNPDHVRNYLFAENVEAKPKDFLSKFLNGKE”, “not soluble”.
Next, “MSATINDLASFNKFFTENQHRFIRFAWTYTRDEVVAEDIVMESLMAYWENRDHMTPEINPAAYVLTVVKNKCLNYLRHLQLVNDVSDRVASHSEWELSNRIATLDACEPNALFASEVQDIIDRVISRLSATTARIFLLSRYDNKSHKEIAEIMGMTVKGVEFHISKATKELRVALKDYLVLFPFLCDFLSRN”: “not soluble”; “MSATTTLKEQVLTTLKREQANAVVMYLNYKKYHWLTYGPLFRDLHLLFEEQGSEVFAMIDELAERSLMLDGQPVADPADYLKVATVTPSSGQLTVKQMIEEAIANHELIITEMHQDAEIATEAGDIGTADLYTRLVQTHQKHRWFLKEFLAKGDGLVS”: “soluble”; “MSAVSYSMHRTTTTTSSSSHGGVSAGHAAEEFVASAEREKQEMQQLNSRLEVYISRVRQLEDRNKELVIELDTLRGSLGNDIGQIKFKFNDSLVKVRREISEAHSGTIGVEVKVDRLRDDLNDYRHRYEEARREVEREKTTWGGAISQAQAELDTNKSRYAAILDEEKRLYAEQDQLYLQLAAAKDELDAAIVDRRRLQAEEDDLKIELEFLGRIHSQEITELRTLLAQAPADTREFFKNELALAIREIKAEYDKIIQTTRVDLETIFQSKISAVESSIVSKNEAAVFRQEEIRKMNESITTLRAKLSELEARNSALEREANTLQIQLGEDQRAYESELHKRDNALRFMREDCQTLIAELQALLNTKQTLDTEIAIYRKLVESEEGRFTHVGQGVVVAQQETTRLVPVEQDHWDSGEVQTRSSFKRHAKGNVSIVECDPQGKYIILENTSGSVAEDVSNFEIRRVIDGVQAFVFRLPSHLVIQQHGHLKIYGRNSGGINSPPDSIVMESHPSWGQGGQVETFLYNSHGIEKASHIQTTVASSR”: “not soluble”.
For “MSCFVTVGSTLFEDLINQVLCEASLENLKKIGVKKIRLQIGKGNFNQDVIDRVFGETSGDEGSVKCDGLDIDYYRYKPSLSEDMAEALIVIGHGGAGTCLEVLALHLPFITVTNDKLMDNHQAELAVQLSDEGYLLQCTPSTLPETILKENLFSLRQFAAPSKKFVAEHIKQLVGIKNH”, the “soluble on expression in E. coli” value is reported as “not soluble”.
Take “MSCTTDKLIQKYDALVRKTTEHKFAKELCAGTLKDRSLYIYLSQDLQFFETSLRLICKTTSLAPTTHALITLAKKIGFFSNDENSYFHDCLELLAPSLTKEERDNFDNKAIPGVDAYINFLDELRKDASITWPSLVTSLWVAEELYWRWARDTPRAPGLHWKYQKWIDLHDGEHFQTWCEFLKAEVDKFPVEEVESIFVKVSQFEFEFFESCYNA”: the “soluble on expression in E. coli” value was “not soluble”.
In the case of “MSDADSQKQIKLTSSDDKTFTVSRKVISQSKTITDIIQNLGIEESGSTSEDTIPLQKVTSTILEKIITWCEHHADDEPKKVDENKKTVDISEWDAEFMKVDQGTLFEIILAANYLDIRGLLDVTTQNVANMMKGKTPSQIRTLFNIENDFSEEEREAMKKENAWCED” it was “not soluble”; in that of “MSDAPTVVAYLGPAGTFTEEALYKFADAGVFGDGEIEQLPAKSPQEAVDAVRHGTAQFAVVAIENFVDGPVTPTFDALDQGSNVQIIAEEELDIAFSIMVRPGTSLADVKTLATHPVGYQQVKNWMATTIPDAMYLSASSNGAGAQMVAEGTADAAAAPSRAAELFGLERLVDDVADVRGARTRFVAVQAQAAVSEPTGHDRTSVIFSLPNVPGSLVRALNEFAIRGVDLTRIESRPTRKVFGTYRFHLDISGHIRDIPVAEALRALHLQAEELVFVGSWPSNRAEDSTPQTDQLAKLHKADEWVRAASEGRKLN”, “soluble”.
In the case of “MSDASKRAAFDQYGHAGVDPSMGGGGAGFGGANFSDIFGDVFSDFFGGGGRGGGRGGAQRGSDLRYTLELNLEEAVRGTTVSIRVPTLVNCQPCDGSGAKKGSTPSTCPTCGGIGQVRMQQGFFSVQQTCPRCHGQGKIITDPCTSCHGEGRVEEYKTLSVKVPAGVDTGDRIRLSGEGEAGTHGGPTGDLYVVISVREHEIFQRDGKHLYCEVPISYTDAALGGELEVPTLDGRVKLKIPEGTQTGKQFRLRGKGVAPVRGGGAGDLLCRVAVETPVNLSRRQRELLEELRDSLEGDSSHSPKASGWFDGVKRFFGDLLEHHHHHH”, the “soluble on expression in E. coli” value is recorded as “not soluble”.
For “MSDDESIFVPDENSAQVSAETTVKCYRTDSASSQKVINNLEKFVLNQSLDKSYKKIASDGIASSKRTLESLLARNGGHQNLLNEEVNKLNNKNYTLDADGRVCLVKNSSNDTSRHQELILLQKDTHELRCLREYLMLALEAIMHNHRQMMVKHVQNVRERPRQVSQAAIDNAIVSSAFGLFIEAFYSFLFQEKANTRIIDEFAQMTLFVDQSIAREEIRSENRRKLKKTIEIETFLMRMMLEMEDIREANVKDLVSLWRSHQRSAKTQPTNNNAAGDSTN”, the “soluble on expression in E. coli” value is “not soluble”.
